Measurements taken from article PMC3458557.

T1: GST-Rho-N-Strep (RHON1 C-terminal Rho-N domain) (Arabidopsis thaliana, UniProt Q94K75 362-401)
T1 chain: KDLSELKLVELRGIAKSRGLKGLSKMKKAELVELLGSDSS

B1: petB 3' UTR (ssRNA)
RNA: GACUGAAGCUAACUUUGGUUGGUUAAUCCGAUCAGUUCAUCGAUGGUCGGCAAGUAUGAUGGUCCUAAUG
B2: 23S-4.5Sa dsRNA (dsRNA)
RNA 1: UUCCUCUAUUUGUUCGAUAGGGGAGAUUCCGACUUCCCCAGAGCCUCCGGUAGCACAGCCGAGACAGCAACGGGUUCUCCGCCCCUGCGGGGAUG
RNA 2: CAUCCCCGCAGGGGCGGAGAACCCGUUGCUGUCUCGGCUGUGCUACCGGAGGCUCUGGGGAAGUCGGAAUCUCCCCUAUCGAACAAAUAGAGGAA
B3: petB 5' UTR (ssRNA)
RNA: GGUAGUUCGACCGCGAAAUUUUUUUCUGCAUUGUAUAUUUCCGGAAUAUGAGUGUGUGACUUGUUAGAAU

Target: T1, GST-Rho-N-Strep (RHON1 C-terminal Rho-N …)
Test: EMSA
B1: binds. B2: no binding. UUCUAGUACAACUAUUGCAGUAGAAUGACAA (ssRNA) [petA 5' UTR 31-mer]: no binding. B3: binds.
